From US20250154240A1, “ANTI-HUMAN CXCL1 ANTIBODY” (CHIOME BIOSCIENCE INC., priority 2022, published 2025) come the findings set out here.

B1: modified human antibody 028-8-12: human antibody 028-8-12 with amino acid modifications in CDR and VL regions; VH SEQ ID NO: 63, VL SEQ ID NO: 67 (antibody, V domains shown)
VH: EVQLLESGGGLVQPGGSLRLSCAASGFTFSELSMSWVRQAPGKGLEWVSAISGSGGSTYYASSVKGRFTISRDNSKNTLYLQMNSLRAEDTAVYYCAREGGRLEPYYYYYAMDVWGQGTPVTVSS
VL: DIQMTQSPSSLSASVGDRVTITCRASQSISDNLHWYQQKPGKAPKLLIYDASNLESGVPSRFSGSGSGTDFTLTISSLQPEDFATYYCQQYYSTPLTFGQGTKLEIK
B2: Hu4A-2F7: humanized antibody VH1/VL1; VH SEQ ID NO: 72, VL SEQ ID NO: 74 (antibody, V domains shown)
VH: QVTLKESGPALVKPTQTLTLTCTFSGFSLSTSGMGVDWIRQPPGKALEWLAHIWWDDDKYYNPSLKSQLTISKDTSKNQVVLTMTNMDPVDTATYYCARSYGYDMDYYAMDYWGQGTTVTVSS
VL: DIQMTQSPSSLSASVGDRVTITCRASQEISGYLSWLQQKPGKAPKRLIYAASTLSSGVPSRFSGSGSGTDFTLTISSLQPEDFATYYCLQYASYPPWTFGGGTKVEIK
B3: Hu1A-7H10: humanized antibody VH1/VL1; VH SEQ ID NO: 68, VL SEQ ID NO: 70 (antibody, V domains shown)
VH: QVTLKESGPVLVKPTETLTLTCTVSGFSSTTYGVHWVRQPPGKALEWLGVIWAGGSTNYNAALMSRLTISKDTSKSQVVLTMTNMDPVDTATYYCATQYHYPFAYWGQGTLVTVSS
VL: DIQMTQSPSSLSASVGDRVTITCKASENVGIYVSWYQQKPGKAPKLMIYGASNRNTGVPSRFSGSGSGTDFTLTISSLQPEDFATYYCGQSYSYPLTFGGGTKVEIK

For one assay, the system named is OCUM-12 gastric cancer cell line. Nature of the assay: Antitumor activity test, model with OCUM-12 orthotopic transplantation (prevention model). The class given is in vivo, mouse. Conditions: 400 μg/head intraperitoneally twice a week, 3 weeks; compared to hIgG1 antibody. The procedure: A model with OCUM-12 orthotopic transplantation was prepared to evaluate the above 4 types of candidate antibodies for their in vivo CXCR2 migration inhibitory activity and antitumor activity in a xenograft model with OCUM-12 orthotopic transplantation.
For use as mice, female nude mice (BALB/cAJcl-nu/nu) at 5 to 6 weeks of age were purchased from CLEA Japan, Inc., Japan. For use as human cancer cells, a gastric cancer cell line, OCUM-12, was provided by University Public Corporation Osaka, Japan.
OCUM-12 cells were cultured in D-MED medium (FUJIFILM Wako Pure Chemical Corporation, Japan) supplemented with 10% fetal bovine serum (FBS; Sigma-Aldrich Corporation) and 1/100 volumes of a penicillin-streptomycin mixture (Nacalai Tesque, Inc., Japan). The cells to be transplanted were detached with 0.25% trypsin/0.02% EDTA (Thermo Fisher Scientific) and washed with PBS, and 4× 10^5 cells per mouse were transplanted into the gastric wall of each mouse.
On the day following the above transplantation, the mice were randomized into groups (8 or 6 mice per group) and intraperitoneally administered with PBS as a control and with 4 types of candidate antibodies (1A-7H10, 4A-2F7, 5A-5E11 and 028-8-12) and 3 types of non-candidate antibodies (1A-3C6, 1A-2H3 and 4A-5B11) at a dose of 20 mg/kg. In addition, mouse IgG1 as a control was intraperitoneally administered at a dose of 20 mg/kg, and 3 types of antibodies (5A-5E11, 1A-4H10 and 4A-7G7) among the candidate antibodies were intraperitoneally administered at a dose of 20 mg/kg. The administration of these antibodies was then continued with a frequency of twice a week until the completion of the test. After 3 weeks had passed from the transplantation, the mice were sacrificed, and the short- and long-axis diameters of tumors formed in their gastric walls were each measured with a caliper. The tumor size was calculated according to the following: 1/2 short-axis diameter (mm)×1/2 long-axis diameter (mm)×3.14.
(§1) Navarixin is among small molecular compounds that act on CXCR2 and inhibit CXCL1-CXCR2 signaling. […] Then, using a model with OCUM-12 orthotopic transplantation, the migration inhibition of CXCR2-expressing cells and antitumor activity were evaluated in vivo for Navarixin. As a vehicle, ultrapure water containing 20% 2-hydroxypropyl-β-cyclodextrin (FUJIFILM Wako Pure Chemical Corporation, Japan) was used. Navarixin (MedChemExpress) was dissolved in ultrapure water containing 20% 2-hydroxypropyl-β-cyclodextrin, and orally administered at a dose of 100 mg/kg/day in a schedule of once a day for 5 consecutive days, followed by a 2-day withdrawal.
The humanized antibodies were evaluated for their in vivo antitumor activity and CXCR2 migration inhibitory activity in a xenograft model with OCUM-12 orthotopic transplantation. Procedures for the evaluation are shown below.
For use as mice, female nude mice (BALB/cAJcl-nu/nu) at 5 to 6 weeks of age were purchased from CLEA Japan, Inc., Japan. For use as human cancer cells, gastric cancer cell line, OCUM-12, was provided by Osaka Metropolitan University, Japan.
OCUM-12 cells were cultured in D-MED medium (FUJIFILM Wako Pure Chemical Corporation, Japan) supplemented with 10% fetal bovine serum (hereinafter abbreviated as FBS; Sigma-Aldrich Corporation) and 1/100 volumes of a penicillin-streptomycin mixture (Nacalai Tesque, Inc., Japan). The cells to be transplanted were detached with 0.25% trypsin/0.02% EDTA (Thermo Fisher Scientific) and washed with PBS, and 4×10^5 cells per mouse were transplanted into the gastric wall of each mouse. On the day following the transplantation, the mice were randomized into groups (8 mice per group) and intraperitoneally administered with test antibodies at a dose of 400 μg/head. PBS was intraperitoneally administered in a volume of 200 μL with a frequency of twice a week for 3 weeks, starting from the day following the transplantation. […]
In the case of B1, the “Antitumor activity (tumor area)” value is reported as “significantly suppress an increase in the tumor area”.

Consider B2, for which the “Antitumor activity (tumor area)” value was “significantly suppress an increase in the tumor area”.

Regarding B3, the “Antitumor activity (tumor area)” value was “significantly suppress an increase in the tumor area”.

A further assay has as its system CXCR2-expressing cells. Nature of the assay: In vivo migration inhibitory activity test on CXCR2-expressing cells, OCUM-12 orthotopic transplantation (prevention model). Set-up: species or system mouse. Conditions: 400 μg/head intraperitoneally twice a week, 3 weeks; compared to hIgG1 antibody.
Source text: (§2) The stomachs after measurement of the tumor size in [3-1] above were excised and fixed overnight at room temperature with a 10% neutral buffered formalin solution (Wako Pure Chemical Industries, Ltd., Japan), followed by replacement with PBS. Then, paraffin embedding and section preparation were outsourced to Applied Medical Research Laboratory, Japan. The prepared gastric tumor sections were immunohistologically stained with an anti-CXCR2 antibody to evaluate in vivo CXCR2 cell migration inhibitory activity. The sections were deparaffinized and rehydrated, and then treated to inactivate endogenous peroxidase. After antigen activation treatment, the sections were blocked with PBS containing 2% skimmed milk and 0.1% Tween-20, and reacted overnight at 4° C. with an anti-CXCR2 antibody (Biorbyt) as a primary antibody, which had been diluted to 0.3 μg/mL with the blocking solution. After washing with PBS containing 0.1% Tween-20, the sections were reacted at room temperature for 1 hour with an HRP-labeled goat anti-rabbit IgG antibody (Abcam) as a secondary antibody. After washing with a washing solution, a simple stain DAB solution (5052, Nichirei Corporation, Japan) was used to cause color development. After images of the stained tissues were captured with an Explore (Olympus Corporation, Japan), imaging software CellSens (Olympus Corporation, Japan) was used to calculate CXCR2-positive cells per unit area.
as §1
as §2, with “after measurement were excised” for “after measurement of the tumor size in [3-1] above were excised”, “and 0.1% Tween-20 (hereinafter referred to as the blocking solution), and reacted” for “and 0.1% Tween-20, and reacted”, “been diluted 1667-fold with the” for “been diluted to 0.3 μg/mL with the”, “to calculate positive cells per” for “to calculate CXCR2-positive cells per”
The dose-response relationship between antibody dose and in vivo antitumor activity or CXCR2 migration inhibitory activity was evaluated in a xenograft prevention model with OCUM-12 orthotopic transplantation. A prevention model is a model designed to start antibody administration from the day following tumor transplantation. […]
B1: the “Migration of CXCR2-expressing cells (positive cells per unit area)” value (“Migration … (positive cells per unit area)” for short) is reported as “significantly suppress the migration of CXCR2-expressing cells”.

With B2, the “Migration … (positive cells per unit area)” value was “significantly suppress the migration of CXCR2-expressing cells”.

B3: the “Migration … (positive cells per unit area)” value is listed as “significantly suppress the migration of CXCR2-expressing cells”.
